Assay: label from the status in PepcDB records

Sequence	protein production
MERAMEQLNRLTRSLRRARTVELPEDNETAVYTLMPMVMADQHRSVSELLSNSKFDVNYAFGRVKRSLLHIAANCGSVECLVLLLKKGANPNYQDISGCTPLHLAARNGQKKCMSKLLEYSADVNICNNEGLTAIHWLAVNGRTELLHDLVQHVTDVDVEDAMGQTALHVACQNGHKTTVQCLLDSGADINRPNVAGATPLYFACSHGQRDTAQILLLRGAKYLPDKNGVTPLDLCVQGGYGQTCEVLIQYHPRLFQTIVQMTQNEDLRENMLRQVLQHLSQQSESQYLKILTGLAEVATTNGHKLLSLSSSYEAQMKSLLRIVRIFCHVFRIGPSSPSNGMDMGYNGNKTPRSQVFKPLELLWHSLDEWLVLIATELMKNKEDSADITSILLKQKGQDQEASCISAFEPPGPGSYERLSTGPGESKPDVLAGKQEASADCQDVISVTANRLSAVIQAFYMCCSCQMPPGMTSPRFIEFVCKHDEVLKCFVNRNPKIIFDHFHFLLECPELMSRFMHIIKAQPFKDRCEWFYEHLHSGQPDSDMVHRPVSENDILLVHRDSIFRSSCEIVSKANCAKLKQGIAVRFHGEEGMGQGVVREWFDILSNEIVNPDYALFTQSYCYVFISIGTTFQPNSNSYVNPDHLNYFRFAGQILGLALNHRQLVNIYFTRSFYKHILGIPVNYQDVASIDPEYAKNLQWILDNDISDLGLELTFSVETDVFGAMEEVPLKPGGGSILVTQNNKAEYVQLVTELRMTRAIQPQINAFLQGFHMFIPPSLIQLFDEYELELLLSGMPEIDVNDWIKNTEYTSGYEREDPVIQWFWEVVEDMTQEERVLLLQFVTGSSRVPHGGFANIMGGSGLQNFTIAAVPYTPNLLPTSSTCINMLKLPEYPSKEILKDRLLVALHCGSYGYTMA	failed
MERDLAGRIVALVSPTGLRTSYSYDACGRMVDVTDPAGRVTRYSYTSDFQVATVTYPTGETARYEYDAMGRVVLSHVPGAGVSQYRYDPCGRLVFSCDLVYGQRHFSYDLAGQLVAATNPAGGVSRYGYDRCGRLVTRTDPGGGLTTYQYNECGQMIAATDPLGRVTEYTWDKSGTLAAITRPDGTVVSRRLGPKGVEEYIDDQLVSRILITPTTRTVTIDDYTDPAFPWRHLLGYDPRGLLLTHSVAPVPGDESIVDEGPLTSSEQWWYDAEGRRVRHLTLTGDSIDYAYTNTGVLGSIRHSRLGEVSLEWDAVGRLAKLGSPLDQQQWGYTDGFVTSHTSSRGSTTISRDEMGRVLRVSAPYGDFRYGYDDSGSLTSADGLDGSSRRWVYDTAGRLVTTTCQDAGTSQTCHYDYDLAGELVSTVTQLGPGDSTVETHYRYDPCGRRIEAASSAGMREEFRWDSRGWLAGVMTFRAGRSHEFATHVDAFGCLTDVSGPAGRTPIAWDLATGEPQLVQVGGIPALPLPDGSVLTPVSADSDQDEPWRRPATDPLDPYTLIQEHLTAGISMTGGHLGVAGLAWMGARVYDSTTASFLTIDPLAAPPGSLWEAASYGYAATNPLALADPLGLRPVTDAQMRQFASTIDTRNLWDRHIRNVFSWETLGGVALATAGGLLMCFGAEVPGAMLIGAGGDMVFQQVVRGHVDYGEVALSGALAPTGGSGLSEIAGLGTRTLLTRGIEAGTTQGYVMGNYHWVTSPGPHNAETYLEQVGGETLSGAAFGGITATIGGKTYDALPDSIPTGHFGPHNTILRVGKQPETFIRKYQRNGKLDFGQATSFRGATFKSKIAIKPITTYRSWSDPDYEVGGYVSRTRPAGPLQTQLDLALAPQWGNKANHISEYEIPQFAPFYEGAAGVQPVKAIEDSDTLGQLPGGGNQILITDKQVLDRWKSKK	failed
MERDQHIRIIYKLIIVLLVLLIIYVVVQLADLWVPFVYVLKRLLIPLGLAAIITYLFHPLIEAMHRRGMGRGLAVLLVFGAMIALLVCFAVVGAPYVLQQIEELTTSFPTVMKDVEGTVSKMEWQIQQLPHPFHNQAENWLNHLGKKAGNLLGQMERVIVVLIQSMVLLITVPFLVLYFLKDFDLIERAAWYVTPRKWRPSLKRYVRDVDRSFGRYIRGQLLVALSVAVVSMMALWLIGVPYPILLGGFIGATNIIPYFGAFIGAVPALVFAYFESWPVLLATAIALFLLQQLEGNVLSPLIVGHSLHLHPITIILALLVGVEVGGVIGLILAVPILAVLKVTFIHLRLHVSKVDREV	failed
MERFNMKLTRKKFTGNLLRSLAVLLLFSLVVCTAAGEELYFEPQEAVFSDTGSVASLSLYLDQAPSGLAGYKLNLSISDPSVAQITGVEFPSWSGINNSSSLPADLVQIKAVDLEEKINAGDLDVFLGTVTVESLASGEANLTVSVDRLDDDSENTISVTVREAKLTSGTTSENPVVSILPAESTLSSGASQVFEIRADKFTEGISGYDFNLTLENPAVGKFTNVEYPSWVGLSENSSMPNTSIKVKAVDTNDVVKAGDENVLLANVTFVAETPGESEISLTFNRLDDDSGSNINAVAEASSVKVQGSSTLPVAKFTATPTSGDSPLTVQFTDESTGSPTAWTWDFGDGATATEQSPSHTYTSAGNYTVNLTVTNDGGSDSEVKTDYITVSESSTPTEPEPVAAFTADVTNGTVPLTVNFTDQSTEAPTSWAWDFDNDGTVDSTEQNPSYTYTSAGTYTVNLTVANAEGSDSEVKIDYITVSESSTPTEPEPVAAFIADVTNGTVPLTVNFTDQSTGSPTSWLWDFGDNTSATEQNPSHTYNSAGNYTVNLTVISESGNSSEVKADYITVSESSTPTEPEPVAAFTADVTNGTVPLTVNFTDQSTGMPTSWAWDFDNDGNMDSTEQNPSYTYTAEGNYTVNLTVSSEVGSDSEVKVEYITVTDSSTTPEARPDLIVSSIIPPSSITANTSCNIGATISNTGESDAGTFNATLSVNGAVVDTHAVSGIVSGSSATVNFSWKPVAAGYYSVKVSADAGNVIAESDETNNELADCIKVEEASSGSQSQNGSSSVSLNVTIVPVVCFEVSPSALKFGELSAGQTSEPQLLTLKNCGVSGIKVTAEVSDSSAEDNLFGLGLLLDSQIWSDYCNVIGSNSQENATAALHVPSDYTGTGNKKGTITFWAEVAE	failed
MERIALPRRTLGARRREVPVTPDTLLPLLAVLPPLAYGLLALFCARAWFGRQRPGPGHTPPVTILKPVKGMDAESFENFASFCRQEYGGPWQMLFACASADDPVIPVIRRLMAEFPDRDIDLVVDGTIHGPNYKVSNLINAFPRARHDILIVCDSDIRVTSDYLGEVTAPFADPAVGLVTSLYRSPGVRGAATALEAMGFTVEMVPNVMVAQRLEGLSFALGASMAVRRTALESIGGFPALTHYLADDYQLGNKIHRAGWRLELSDCFVESVMHRENLTTVLSRQLRWCRTMRASRPGGYLGSGITQPVPLACLALLVSGCSAAGWGAVILLYLTRALVAVTFSRRYLRDGIFPRWLWLLPLRDILAFATWALSFAGNRVRWRGNLFRLLPGGKIVEIG	failed
MERIIQQTDYDALSCKLAAISVGYLPSSGLQRLSVDLSKKYTEWHRSYLITLKKFSRRAFGKVDKAMRSSFPVMNYGTYLRTVGIDAAILEFLVANEKVQVVNLGCGSDLRMLPLLQMFPHLAYVDIDYNESVELKNSILRESEILRISLGLSKEDTAKSPFLIDQGRYKLAACDLNDITETTRLLDVCTKREIPTIVISECLLCYMHNNESQLLINTIMSKFSHGLWISYDPIGGSQPNDRFGAIMQSNLKESRNLEMPTLMTYNSKEKYASRWSAAPNVIVNDMWEIFNAQIPESERKRLRSLQFLDELEELKVMQTHYILMKAQW	not failed
MERITDVPESPAQSADPARVNDYDSFAEAYSAETENNLVNAYYARPAMLALAGDVAGRRILDAGCGSGPLSAALRDRGAVVTGIDASAGMLALARRRLGDDVALHVVDLSDRLPFDDGAFDDVVASLVLHYLEDWGPTLAELRRVLRPGGRLIASVDHPFVAYTFQDPRPDYFATTSYTFDWTFNGQSVPMKFWRKPLHAMTDAFTTAGFRLSVISEPQPDPAAIELFPDAFHDLSTKTCFLFFVVEVPPSATGSDDY	failed
MERIVMPANYVHTRTTPFWTKETAPASIWRRHLDAGTRQGVYPRLCVMQGTIRYYGYADETSPEPVETLTIEAGQFGVFPPEKWHRIEALSDDTLFNVDFYVDPKILIEGLEHHHHHH	failed
MERNRRRNADNNTVVDQGGVFFDGCDTDEAFGPSSRDVPFQHDSVKSKPNLYGGG	not failed
MERRLAAILIADVVGYSRLSQIDEEGTRARFQADQNDVFEPAIERHHGRLVKTMGDGLLVEFQSVVDALRCAVEVQQLKATQSAASLPEHRLEFRIGINLGDIIVEGEDIQGDGVNIADRIQALAEPGGIAISGTTYDQVKSKIPVGFASLGEQRLKSITEPIRVYRILLDPTAAGKTLKTRRRLPRRRLVAGIAAAIVVLALAGAALWWQPWMPAKPPGPGERFAYPLPDRPSVAVLPFINVSGDSEHDHLAEGLTDDLITELSKVSGLFVIARHSVFAIQGSVGKIQDVATELGVQYVLEGTLQRAGPRLRINVKLIDAVSGLSLWAERYDRQYADLFAVQDDVIGKIISALSVKLSARERDQLARIPTENLEAYDFYMRAEQEGFILRDVDTYRRTLSFYQKAIDLDPGFANAHAGIARVAVDVWRNDYNYLWSAAVARKIAYDAAGQALKLDPNNARAHTVLALLQWVDGRETEAKNSANMAVAMEPNDAEAAANLALILVHTGSSGQAITEMEKALRLDPSPASSFQLLAGIVFYTAGDDQRAISLIEPTLDSLPKVEPAREYLAAAYADQGNETKAAAETAKLLELFPEGNLTYYGYLYDYWRDGDLQRHLAALRKAGIPEWPFGFTGSQADRLGEADLRNLVDGKSWTGKHKNGTDFTQYFDRAGNTAYRSANTNITGIVEVRGDSLCEKFEGYFLDRMVCGYVYRNTSGEQRDRPYVHVTPRALTFFSPTP	failed
MERSIGFGQALKLFWKNYVNFKGRSRRSEYWFMALWNIIFMMPALILYIIGLIMTVSGAASSSEELVAIGVILLFLSICYALIYSLATLIPGWALLIRRFHDTGRTMLMPLIYLGVIVISYPVLFVVNIQDPEYNNPVYIIFFAIIFLVYIALGIYMLVICCLDSERKTNKYGASHKYGNHIKSSTNTYANQDAPIHEDTNVKHVNSEENAFSEEVNTSDENATKKDDNFKY	failed
MERTLSDSQIRYIKARERRNLRGAQAFICLFLSLFVLILLQGVWLLISPRLACALLVPWAIFLWWWVFHRLKGQQSEVAARTQWLQGQFSATWVSSHRNGHFSYSFGDYPIAACCRLNNLFNEKRLDLHTRYRVEAALLTCSQTASHSYYLFGDTLVPVTRAPETDEQPGS	failed
MERVGTPEEERQAGPVLPTSLESDSSKRTSWGFLITGVVGGALLTVYAVATPFITPALRKVCLPFVPATSKQVENVVRMLRHRRGPLVDIGSGDGRIVIAAAKEGFPAVGYELNPWLVWYSRYRAWRAGVHGSAKFYISDLWKVTFAQYSNVVIFGVPQMMPQLEKKLELELEDGARVIACRFPFPRWTPDHTTGEGIDTVWAYDMSAQRGRGGRPNQEWVGQKNLSETAGLQASSSETRSKLLDVE	failed
MESDSEMVPFPQLPMPIENNYRACTIPYRFPSDDPKKATPNEISWINVFANSIPSFKKRAESDITVPDAPARAEKFAERYAGILEDLKKDPESHGGPPDGILLCRLREQVLRELGFRDIFKKVKDEENAKAISLFPQVVSLSDAIEDDGKRLENLVRGIFAGNIFDLAVKTWFHDHGSLMTWKTSKPNGSISLGRRSLICFALPFNASFRLQCLFSELKYTLNCSSSSSFPFKVVLAANELPSINDITCTELTEILSQLKDENGQLLGVDTSKLLIANSGNDLPVIDLSRVSQELAYLSSDADLVIVEGMGRGIETNLYAQFKCDSLKIGMVKHLEVAEFLGGRLYDCVFKFNEVQS	not failed
MESIWRIATGQDPSREDYEGIEFWSNPERSGWLTKQGDYIKTWRRRWFVLKRGKLLWFKDQAAAGIRGSTPRGVISVGDCLTVKGAEDVVNKPFAFELSSGSYTMFFIADNEKEKEEWINSIGRSIVQHSRSVTDSEVLDYDHRR	failed
MESKTNYTIVGLIVLILTAGLLSAGLWLSVGFNQKEYTSYTVYLKESVSGLSVESPVKFNGVQVGYVKEIKLNKNDPRQVELLLNIEKSTPITTSTSATLITQGITGVTYVGLSAGSSELTPLRKMPGEPYPVIPSKPSLLNQLDAVLKEVAENVGAVSEKAQLIFNEENADNVRKSLANLERITEIIADKGQTIDSSLNNLDVFVANMANASKQFPQLIKDLKTGISKFKSLADNMSAAGKDVSKTMIAGKNTIDQISQQAIPPAVILLRRLNAISANLEKVSNEMRQNPSVIIRGTKAPKLGPGELEHHHHHH	failed
